Target: T1, basic Fibroblast Growth Factor (bFGF) (human, UniProt P09038 143-288, limits assumed)
T1 construct: Bought recombinant protein; It was coated on ELISA plates; also called recombined humanized bFGF; antigen bFGF
Test: indirect ELISA: bFGF coated at 0.5 ug/ml, anti-His-tag detection, A450
Method: The recombined humanized bFGF (Sigma-Aldrich Co.) was diluted to 0.5 μg/ml with carbonate buffer solution (0.05 mol/L, pH9.6) to coat ELISA plates at an amount of 100 μL/well, and incubated at 37° C. for 3 h. After discarding the liquid in the well, the plates were washed with PBST (PBS, 0.015 mol/L, pH 7.4, comprising Tween 20 0.05% (v/v)) for three times, blocked with fat-free milk-PBST 5% (wt), added with the ds-Diabody and anti-bFGF ScFv prepared according to example 1 at a certain concentration to achieve an amount of 100 μL/well. Then the plates were incubated at 37° C. for 1 h, washed with PBST for three times, added with 100 μL/well diluted anti-His-tag mouse monoclonal antibody 1:2000 (v/v) (sigma-aldrich Co.), incubated at 37° C. for 1 h, washed with PBS-T for three times again, and then added with diluted HRP marked goat anti-mouse polyclonal antibody (1:8000 (v/v) (sigma-aldrich Co.), and incubated at 37° C. for 0.5 h. After that, the plates were washed with PBS-T for 5 times, stained by TMB and detected at A450. Meanwhile, PBS was used as a negative control.

T1 sequence (P09038 143-288 limits assumed): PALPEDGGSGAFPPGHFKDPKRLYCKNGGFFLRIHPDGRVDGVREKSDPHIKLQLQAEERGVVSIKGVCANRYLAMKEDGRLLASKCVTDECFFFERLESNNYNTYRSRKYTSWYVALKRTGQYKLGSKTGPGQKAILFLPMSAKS

B1: anti-bFGF humanized ds-Diabody (other)
chain: QSVLTQPASVSGSPGQSITISCTGTSSDVGGYNYVSWYQQHPGKAPKLMIYDVSNRPSGVSNRFSGSKSGNTASLTISGLQAEDEADYYCSSYTSSSTVVFGCGTKLTVLGGGGSQVQLQESGGGLVQPGGSLRLSCAASGFTFSSYEMNWVRQAPGKCLEWVSYISSSGSTIYYADSVKGRFTISRDNAKNSLYLQMNSLRAEDTAVYYCARELTGDWGAFDIWGQGTMVTVSSHHHHHH
notes: Dimer of two VL-GGGGS-VH chains joined covalently by disulfide bonds between Cys at VL 100 and Cys at VH 44; Bivalent; Expressed in HEK 293T cells and purified on a Ni column; also called disulfide bond stabilized-diabody; VL-GGGGS-VH; not shown: N-terminal residues from the vector p3XFLAG-Myc-CMV-25, if any stay on the secreted protein
  binding result: binds
